Laboratory results: PMC7708983, “A combined NMR and EPR investigation on the effect of the disordered RGG regions in the structure and the activity of the RRM domain of FUS”

Molecular target: FUS165-422 (RGG1-RRM-RGG2) (UniProt P35637 165-422)
Experiment: NMR 1H-15N HSQC chemical shift changes; 1:1 molar ratio; largest shifts near residues 286, 326, 369; 20 mM MES pH 6.5, 150 mM NaCl, RNase free; CW-EPR at room temperature; NMR temperature not given in the material
Settings: protein: recombinant; tags: His-MBP tag removed by TEV; hairpin

Chain of FUS165-422 (RGG1-RRM-RGG2) (P35637 165-422): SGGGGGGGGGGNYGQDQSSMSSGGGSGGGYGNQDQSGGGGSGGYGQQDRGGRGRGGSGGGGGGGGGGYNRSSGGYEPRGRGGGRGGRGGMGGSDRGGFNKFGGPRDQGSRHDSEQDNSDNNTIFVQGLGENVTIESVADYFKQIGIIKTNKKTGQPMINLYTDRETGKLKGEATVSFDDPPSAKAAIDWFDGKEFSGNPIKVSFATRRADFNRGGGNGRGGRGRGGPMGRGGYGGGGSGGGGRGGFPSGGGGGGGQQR

B1: hnRNPA2/B1 stem-loop RNA (structured_RNA)
RNA: GGCAGAUUACAAUUCUAUUUGCC
binding result: binds
